T1: Scm3 residues 93-169, as it stands in the single-chain molecule scSCH (yeast, UniProt Q12334 93-169)
T1 sequence: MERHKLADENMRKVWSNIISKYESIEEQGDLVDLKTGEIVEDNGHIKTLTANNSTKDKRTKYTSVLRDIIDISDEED

B1: Scm3_(83–169) (domain or fragment)
chain: IIPKLTDDEVMERHKLADENMRKVWSNIISKYESIEEQGDLVDLKTGEIVEDNGHIKTLTANNSTKDKRTKYTSVLRDIIDISDEED
B2: single chain Cse4-H4 (His6-KK-Cse4_(151–207)-LVPRGS-H4_(45–103)) (complex)
chain: not shown
B3: Histone H4 residues 42-103, as it stands in the single-chain molecule scSCH (domain or fragment)
chain: not shown

Columns and labels:
[1] = target: single chain Cse4-H4 with Cse4 Ala189Ser/Ser190Val (budding yeast | , UniProt P36012;P02309, Ala189Ser | Ser190Val); test: ITC
[2] = target: single chain Cse4-H4 with Cse4 Met181Ser/Met184Gly (budding yeast | , UniProt P36012;P02309, Met181Ser | Met184Gly); test: ITC
Scm3_(83–169) = target: B1; test: ITC
[3] = target: T1, Scm3 residues 93-169, as it stands in …; test: NMR structure

Binder: B1
- fold reduction of the binding affinity against the wild type [1]: 9 fold
- fold reduction of the binding affinity against the wild type [2]: 5.5 fold

Binder: B2
- binding result (Scm3_(83–169)): binds

Binder: B3
- binding result [3]: binds
